Here are results for 1 molecule from US20250154240A1 (CHIOME BIOSCIENCE, published 2025).

Where a chain is given by its changes, count along the chain named.

Test [1] addresses T1, human CXCL5 (human, UniProt P42830 37-114, limits assumed).
T1 construct: also called HuCXCL5
T1 sequence (looked up): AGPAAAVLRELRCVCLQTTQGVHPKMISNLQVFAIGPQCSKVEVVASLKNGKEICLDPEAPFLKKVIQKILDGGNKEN
Nature of the test: blocking ELISA: HuCXCL5 immobilised, antibody 0 to 10 µg/mL, then biotin-labeled heparin 10 µg/mL (blocked ligand: heparin); panel HuCXCL5. Here is the method:
(§1) Thus, the effect of Hu5A-5E11 on the binding of CXCLs to GAG was evaluated by ELISA assay using plates on which the antigen (HuCXCL1 protein) used for immunization or HuCXCL2, 3 and 5 and MsCXCL1 and 2 proteins had been directly immobilized. CXCLs other than HuCXCL1 were purchased from PROTEINTECH and used. Biotin-labeled heparan sulfate and heparin were purchased from PG Research and used.
(§2) To 96-well plates, phosphate-buffered saline (PBS) containing 3 μg/mL of HuCXCL1, 2, 3 or 5 or MsCXCL1 or 10 μg/mL of MsCXCL2 was added in a volume of 50 μL per well, and the plates were allowed to stand overnight at 4° C. After removal of the antigen solutions, PBS containing 0.05% Tween-20 (hereinafter referred to as the blocking solution) was added to each well for blocking reaction, and the plates were allowed to stand at room temperature for 30 minutes. […] TMB (Dako) was added as a chromogenic substrate solution to cause color development, and 1 N sulfuric acid was added to stop the reaction, followed by measurement of absorbance at 450 nm. The binding rate of CXCLs to GAG was calculated as a ratio relative to the absorbance measured in the absence of the antibody, which was set to 100%.
(In an ELISA, binding on a coated surface is turned into a signal by an enzyme label.)

Test [2] deals with T2, human CXCL1 protein (human, UniProt P09341 35-107).
T2 construct: also called HuCXCL1
T2 sequence: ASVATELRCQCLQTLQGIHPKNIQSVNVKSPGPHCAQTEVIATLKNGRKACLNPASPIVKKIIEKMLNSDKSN
Nature of the test: antigen-immobilized ELISA, HuCXCL1 on the plate, absorbance (lower left panel).

In test [3] the target is T3, mouse CXCL1 (mouse, UniProt P12850 25-96, limits assumed).
T3 construct: also called MsCXCL1
T3 sequence (looked up): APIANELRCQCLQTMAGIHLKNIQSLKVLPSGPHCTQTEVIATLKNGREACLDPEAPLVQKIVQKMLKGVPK
Nature of the test: blocking ELISA: MsCXCL1 immobilised, antibody 0 to 10 µg/mL, then biotin-labeled heparin 10 µg/mL (blocked ligand: heparin); panel MsCXCL1. Here is the method: as §1, §2

Test [4] concerns the target T4, human CXCL2 (human, UniProt P19875 35-107, limits assumed).
T4 construct: also called HuCXCL2
T4 sequence (looked up): T2 sequence with S2P, V3L, P20L, N27K, R48Q, I58M, N68K, S69N, D70G
Nature of the test: blocking ELISA: HuCXCL2 immobilised, antibody 0 to 10 µg/mL, then biotin-labeled heparan sulfate 10 µg/mL (blocked ligand: heparan sulfate); panel HuCXCL2. Here is the method: as §1, §2

Test [5] deals with T2, human CXCL1 protein. Nature of the test: blocking ELISA: HuCXCL1 immobilised, antibody 0 to 10 µg/mL, then biotin-labeled heparin 10 µg/mL (blocked ligand: heparin); panel HuCXCL1. Here is the method: as §1, §2
The target in test [6] is T5, human CXCL3 (human, UniProt P19876 35-107, limits assumed).
T5 construct: also called HuCXCL3
T5 sequence (looked up): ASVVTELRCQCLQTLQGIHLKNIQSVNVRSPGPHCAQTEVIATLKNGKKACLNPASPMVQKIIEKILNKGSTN
As to the kind of experiment: blocking ELISA: HuCXCL3 immobilised, antibody 0 to 10 µg/mL, then biotin-labeled heparin 10 µg/mL (blocked ligand: heparin); panel HuCXCL3. Here is the method:
as §1, §2

B1: Hu5A-5E11 VH1/VL1 (antibody, V domains shown)
VH: QVQLVQSGAEVKKPGSSVKVSCKASGYAFSDYWMNWVRQAPGQGLEWIGQIYPGSGDTNYNAKFKGKGTITADKSTSTAYMELSSLRSEDTAVYYCARERDYDVAMDYWGQGTTVTVSS
VL: DIQMTQSPSSLSASVGDRVTITCKASQDINKYIAWFQQKPGKAPKLVIHYTSILQPGVPSRFSGSGSGTDYTFTISSLQPEDIATYYCLQYDNLPWTFGGGTKVEIK
notes: also called humanized Hu5A-5E11
One may read the EC50 (read off the curve) as the concentration that produces a half-maximal response. Low values mean an effect from little substance, high ones a need for much substance. As for B1, the binding result in test [1] is given as “binds”. Besides, in test [2], the “EC50 (read off the curve)” value is around 0.02 mg/L. Further, the “IC50 (read off the curve)” value in test [3] was around 0.6 mg/L; in test [4], around 0.8 mg/L; in test [5], around 0.6 mg/L; in test [6] it was around 0.5 mg/L.
